Our source for the protein production values is a protein production outcome set (Wang et al. 2014).

The data set is described as follows: label from the status in PepcDB records.
For the sequence “MGLLFFHNDVTDRFNPFIHQQDVYVQIDRDGRHLSPGGTEYTLDGYNASGKKEEVTFFAGKELRKNAYLKVKAKGKYVETWEEVKFEDMPDSVQSKLKLEHHHHHH”, the protein production entry was “not failed”.

“ILARTKIFPWFFDLKRNKMLIDAHWFSYLGIPAGDCEITIEKFFSRVHPNERDMLADALQKQLSEKEIPDSFSYRLQRGDGSWEWFSEQSMYLSKTNDGSPYRIVGVCHSIQEHKNT”: the protein production result is “failed”.

For the sequence “MPFSISGRKGSEMMAKLDELKQKLTAKQIQAAYLLVENELMESNNEEKRTQDEMANELGINRTTLWEWRTKNQDFIAFKSEVADSFLAEKREQVYSKLMQLILGPQPSVKAMQLYMQRFGLLTDKKVIEGDLGNATRTNAEIEEQLQKLKKLTGE”, the protein production entry is on record as “not failed”.

For the sequence “MGGHFWPPEPYTVFMWGSPWEADSPRVKLRGREKGRQTEGGAFPLVSSALSGDPRFFSPTTPPAEPIVVRLKEVRLQRDDFEILKVIGRGAFSEVAVVKMKQTGQVYAMKIMNKWDMLKRGEVSCFREERDVLVNGDRRWITQLHFAFQDENYLYLVMEYYVGGDLLTLLSKFGERIPAEMARFYLAEIVMAIDSVHRLGYVHRDIKPDNILLDRCGHIRLADFGSCLKLRADGTVRSLVAVGTPDYLSPEILQAV”, the protein production entry is given as “failed”.

As for “MESNLTYTEALLKLEEIVEQIEDDSIMLDTLTEKVMQANELIKYCETKLRTIEGDVRDVLQ”, the protein production entry is on record as “failed”.

As to “MDELIKILHAQFGHASFRPGQREVVEDVLAGRDVLAMLPTGSGKSLCYQLPAYLLPGSVLVVSPLVSLMEDQVEQLRRRGEKRVIAFHSLLDAEEKWQALASLPDFRFIYASPEMLQSAKFLTALGRTRISLFVVDEAHCISQWGYDFRPDFLKLGTVRRALGSPPCLALTATAPPEVRDDIVRTLGMERACLHIYSVDRPNIALKVEYCLSAEEKAARLVEYARQLEGPGIVYFSSRQWAEEMARRLEQSGAGRVAYYHAGMDGEQRLLVQQQFLYGQLDIVCCTSAFGMGVNKENVRFVLHFHMPAQLEAYVQEIGRAGRDGAPSLAVLFYADGDRAIAQAVAEAELPDPHELREWCWRLPDNVAVEQWNAAIEASGFTEIQKRLLTYLLEWGQTAPPGRLTAEVKEQLYERMAAAIETRRRWKRKKLHEMDDWVHTSSCRRAMIVRAFGEELMDKPGDCCDCCGLRLDAYMRDTRRLAAAPIRHWREELWQMFFSRGRQDETAK”, the protein production result is recorded as “failed”.

As to “MACSRFERQNMFKLCLDFTQKRAPMSQKQPINLVLSGGGTRAIGHLAIISALLERGFEIRAISGSSGGAIVGSLLASGKSPKECYDLLLKTNFVRLFAFKMSQGGLFHLKRGEAYLEKILGIKEFSELSLPLYVCVVDLKEGRPFFLSEGNIAKAVIASSSISPFMRPVEMEGRMGADGGIMNNLPIEPFLEENLPIIGINVNPNRPFHSHSMVSIAKRALFLQFYSNILERSKLCSLYLEPSGIDAYTIYDLKSLESVYNLCQEWCETNLDALIGDVPLHVLRP”, the protein production result is recorded as “failed”.

In the case of “MSVTLVNNENNERYEFETIESTRGPKAVDFSKLFETTGFFSYDPGYSSTAGCQSKISYVNGKKGELYYRGHRIEDLVAKYKYVDVCKLLLTGELPKNQDESLEFELELRHRSFVHESLLNMFSAFPSNAHPMAKLSSGVSILSTLYSTHQNMHTEEDYQTMARRIVAKIPTLAAICYRNEVGAPIIYPDIARSYVENILFMLRGYPYSRLKHTTQGEVEITPLEVEAFDKILTLHADHSQNASSTTVRNVASTGVHPYAAISAGISALWGHLHGGANEKVLLQLEEIGDVKNVDKYIARVKDKNDNFKLMGFGHRVYKSYDPRAKILKGLKDELHQKGVKMDERLSEIAAKVEEIALKDEYFIERNLYPNVDFYSGTILRALKIPVRFFTPVFVIGRTVGWCAQLLEHVKSPQARITRPRQVYVGD”, the protein production result was “failed”.

As to “AAPPAPAAKPGSPKKRGKTEVNESLLTPRFYTTDFDEMEQLFNAEINKQLNQDEFDALLQEFKTDYNQTHFIRNPEFKEAADKMQGPLRQIFVEFLERSCTAEFSGFLLYKELGRRLKKTNPVVAEIFSLMSRDEARHAGFLNKGLSDFNLALDLGFLTKARKYTFFKPKFIFYATYLSEKIGYWRYITIFRHLKANPEYQVYPIFKYFENWCQDENRHGDFFSALLKAQPQFLNDWKAKLWSRFFCLSVYITMYLNDCQRSAFYEGIGLNTKEFDMHVIYETNRTTARIFPAVPDVENPEFKRKLDRMVDINLKIISIGESNDLPLVKNLKRVPLIAQLVSEIIAAYLMPPIESGSVDFAEFEPKLVY”, the protein production result was “failed”.

As to “MLYIDKATILKFDLEMLKKHRRAIQFIAVLLFIVGLLCISFPFVSGDILSTVVGALLICSGIALIVGLFSNRSHNFWPVLSGFLVAVAYLLIGYFFIRAPELGIFAIAAFIAGLFCVAGVIRLMSWYRQRSMKGSWLQLVIGVLDIVIAWIFLGATPMVSVTLVSTLVGIELIFSAASLFSFASLFVKQQ”, the protein production entry is “failed”.

With “MTSTPGISDSLLSSMNGSGANNNTSAISETQDRFMKLLIAQMKNQDPLNPMDNAEVTSQMAQLSTVTGIEKMNASLSTFISSMQATQALQASSLIGNTVLVEGNSTYLAPAETEGESAAYLGVELPIGADKLTVNIKNGAGNVVKTITVTNQPAGISSLGWNGYGDDGTKLPDGRYTIEATATTGNSSVASTPLSYEQVMSVSTGSDGVKLNLSNLAAITTDQIKQIF”, the protein production result is listed as “not failed”.

On to “MTQTDRPCLAALVILILLQLIMLFSLFAGVPPHPPIATPLFGIGPFIGASVSAAIAAIVLGESRAARVLALLAVLGALVSFGPQKYLDPQFPLIWPAVIAAQLAAITVLVRLLPALSRQDA”, for which the protein production entry was “failed”.

Regarding “HFLLPFAEIPEQFPASKAVLMEHFYRRMRKRFGYLMTADGKPEGGQWNFDADNRNKLKSPDLLQLPTPLCFDNPVASIKARIERHRIPSIGQVGESLLWPINRAQALSLLAHFCQICLPNFGRFQDAMTAQHPHRWSLYHSRLSFALNSKLLSPREVIEATISAYRAAQGQISLAQVEGFVRQILGWREYVRGMYWSN”, the protein production entry is listed as “failed”.

Regarding “MEHPLIRIVILAVLAYVGYALLCFLVQRTIIYPGRSLSVAGQPPDLPDIHPLWLTTPYGHVESWFLPATGSVAGDRRPVVLFFHGNGEVIDVLPDQAEGFRRMGMHVMLVEYPGYGRSGGSPSEEGITAAAVAAYDELVRRSDTDSGRMIAFGRSLGCGAACALSLRRPLAALILQSPFTSTRPFARQMLLPGFLARDVFDNRKALESYGGAVLILHGTEDDIIPVGHGRELARTVRRGCLIELRCGHNDCPPDWLEFWRIIEGFLEQEGVSGRK”, the protein production result was “failed”.

For the sequence “MSDPGNEQNGDGIDPAIVEVLLVLREAGIENGATPWSLPKIAKRAQLPMSVLRRVLTQLQAAGLADVSVEADGRGHASLTQEGAALAAQLFPDPF”, the protein production result is listed as “not failed”.

Regarding “MSKTPRIRIPPEVRQYVFQRDKFQCQSCGKTGLETNLTIDHIIPLARGGQNDISNLHTLCFDCNRCKTDKLDSRFRRHFEI”, the protein production entry was “failed”.

As for “MRPKVSVALATYNGEKYIEEQLESIIKQTRAPDELVICDDCSNDETINIITKKIKNAHFDVKLVSNDKNIGYVQNFSKALEMSSGDIVFLCDQDDVWLSDKIEFIINKFNTRPDIQLLIHDVDYCKEDLTPIGQTKLQRMESNFDIESDYVVGMATAVRRSFLVHCLPVPSAPEVTHDEWLHDCARVLGCKGIVREVLALYRRHSLNVTAPSRLNVDFVTTRHYFGNESLAFLKLFRMETDLGSPDISPLVQWLDSRKMVLLDNGFSSEDRINTFIQYEEKRLRARNSRQSILRLDRWKRLFPIYDLYRSGGYHYYCGWKSALKDLLRTYALEHHHHHH”, the protein production entry is “not failed”.

On to “STQVSQATSQPINFQVQKDGSSEKSHMDDYMQHPGKVIKQNNKYYFQTVLNNASFWKEYKFYNANNQELATTVVNDNKKADTRTINVAVEPGYKSLTTKVHIVVPQINYNHRYTTHLEFEKAIPTLADAAK”, for which the protein production result is listed as “not failed”.

As to “MVALRGKEIDAFLARPDAGRPIVLLYGPDAGLVRERADALIASAVDDPNDPFSLVRLDGDELSAEPSRLVDEAMTVPLFGGQRAIRVRAGSRSFASGIDTLAEMGVKDCRIVIEAGELRPESPLRKACERAKTAVAIGCYPDTERDLAKLMDDELRIANLRIAQDARAALMSFLGGDRQASRNELRKLTLYAHGKGEITLEDVMAVVADASELKLDPIVDGAFAGRPDIVETEFAKAMIAGTYPGVIISAAQRQAAWLHKSALAIADGQPASAVLDGGFPRLHFSRKPAVETALRNFSVARLAAIIEQLATAALDTRKQSTLAAAIAQRTLMAIAANAKRRGLEHHHHHH”, the protein production entry was “failed”.

On to “SSPQHLLVGGSGWNKIAIINKDTKEIVWEYPLEKGWECNSVAATKAGEILFSYSKGAKMITRDGRELWNIAAPAGCEMQTARILPDGNALVAWCGHPSTILEVNMKGEVLSKTEFETGIERPHAQFRQINKNKKGNYLVPLFATSEVREIAPNGQLLNSVKLSGTPFSSAFLDNGDCLVACGDAHCFVQLNLESNRIVRRVNANDIEGVQLFFVAQLFPLQNGGLYICNWQGHDREAGKGKHPQLVEIDSEGKVVWQLNDKVKFGMISTICPIRE”, for which the protein production result is recorded as “not failed”.

“MRAISQYIAIFVITLTLSGCFFQNSDDQRWELAPQGTTSFALSRDARFALFFVKNDSIPEKNESQVKSGLHFWDLVENKELTFFGDQDQDKSTVSYIRISDNSRFAITATQTNFAVWDLGMGISEGLWSISDGIIRDVAIASNGQQVLLGLSNGKAIYINLATGRRLEFLAHREKVNSVALSANGKFALSGGNDYFAYLWDTETGQILRTFEHEKRVSRTALQRDGKYAFTADGGNEGFIWDLKTGEKITELSTLARQQVYSTARFSDDGQLLVTGSPSGTVNVWNTTSGKKLEQWRSEPLKDARPPTAVVYDVAIDKQQRVVSATSAGIAQAWLIE”: the protein production result was “failed”.

Regarding “MAFTESDVYNNEAFFKQYMKRRYRENSPNELIEKPAFFQLIGDVKGKKILDLGCGDAIFGKELLEKDCHSYTGIEGSELMYEKAKKQLENKNGIVHFLNLKDYTYPPATFDLVTSRLALHYIEHLPIIFQNVYETLKTNGTFTFSVQHPVITSSFESLQTSGKRTSWLVDDYFKTGKRVEPWIDQKVIKYHRTTEEYFTLLQQAGFTITNLKEATPNQTYFQSAEEYERRLRIPLFLLFSCRKLEHHHHHH”, the protein production entry is “not failed”.

On to “MERDENYLRAKKRVENLKAFYIHLTVYILVNLMLFFINISSDSSKLWFLYPLAGWGIGIVIHALTTFPVGIFGKEWEERKIKEYMEKDK”, for which the protein production entry is “failed”.

On to “SLYGNSSGGTLLTTTKEGQGKDSVELNYSGGSHDKNRTGLILQGGAKQSNQPSYVISSSYFDTDGYREHSAAHKILNNAKLTWNLDDGSKINWITNYVKINADDPQGLTRDQWKANPKQQVPFLQQFDVRKDIEQTQTGVTWSKPINDQNELYMMGYLGNRKVTQYQSIPKSTQDASKNQAGGVIDFERNYYGADLRWTGKELLPNTTFSVGVALDAMDEDRKGYENYVTVNNQPSYGVKGNLRRDEDNTLWNIDPYLQASWQFLPTWRLDTGVRYSNVHYKSDDHFIVIGNTAKDSNPDDSGKTDYSKVLPSAALSWQIVPELLAYVSYAKGFETPTFTEMAYNPDPDLSGFNFGLKASTSDTYEAGLKSQNRLGDFTLAAFQTKTKDDIVSAGSINGRATFRNADRTLREGIEFTWNKQLWRDLVLNTSYAYLNATFDADVPATASVAAITSGNQIPGVAKNQAYASLAWKPQTGFHGGIDAQYNDKIYVDDKNSDAAPSYTVVAAYAGYTWQMQDWKLNVYSRVDNMFDKSYVGSVIVNDGNSRFFEPADGRNWSAGLRVSKQF”, for which the protein production result was “failed”.

Take “DRVTLEVGKVIQQGRQSKGLTQKDLATKINEKPQVIADYESGRAIPNNQVLGKIERAIGLKLRGKDIGKPIEKGPRAK”: the protein production result is “not failed”.
